Experiment [1] deals with recombinant Flk-1 (UniProt P35918). The experiment can be described thus: ELISA on coated recombinant Flk-1, anti-rat IgG1 HRP; antibody at 4 ng/ml.
Experiment [2] shares this target. The experiment can be described thus: ELISA on coated recombinant Flk-1, anti-rat IgG1 HRP; antibody at 12 ng/ml. Background: ELISA stands for enzyme-linked immunosorbent assay.
For experiment [3] the target is unchanged. The experiment can be described thus: ELISA on coated recombinant Flk-1, anti-rat IgG1 HRP; antibody at 37 ng/ml.
Experiment [4] has the same target. Description: ELISA on coated recombinant Flk-1, anti-rat IgG1 HRP; antibody at 111 ng/ml.
Experiment [5] shares this target. The experiment can be described thus: ELISA on coated recombinant Flk-1, anti-rat IgG1 HRP; antibody at 333 ng/ml.
Experiment [6] shares this target. The experiment can be described thus: ELISA on coated recombinant Flk-1, anti-rat IgG1 HRP; antibody at 1000 ng/ml.
The target is the same in experiment [7]. The experiment can be described thus: ELISA on coated recombinant Flk-1, anti-rat IgG1 HRP; antibody at 0 ng/ml (background).
For experiment [8] the target is unchanged. Description: competition ELISA: antibody mixed with Flk-1, added to coated human VEGF, anti-Flk-1-HRP; antibody at 4 ng/ml.
The target is the same in experiment [9]. Description: competition ELISA: antibody mixed with Flk-1, added to coated human VEGF, anti-Flk-1-HRP; antibody at 12 ng/ml.
The target is the same in experiment [10]. The experiment can be described thus: competition ELISA: antibody mixed with Flk-1, added to coated human VEGF, anti-Flk-1-HRP; antibody at 37 ng/ml.
The target is the same in experiment [11]. Description: competition ELISA: antibody mixed with Flk-1, added to coated human VEGF, anti-Flk-1-HRP; antibody at 111 ng/ml.
The target is the same in experiment [12]. Description: competition ELISA: antibody mixed with Flk-1, added to coated human VEGF, anti-Flk-1-HRP; antibody at 333 ng/ml.
The target is the same in experiment [13]. The experiment can be described thus: competition ELISA: antibody mixed with Flk-1, added to coated human VEGF, anti-Flk-1-HRP; antibody at 1000 ng/ml.
Experiment [14] has the same target. The experiment can be described thus: competition ELISA: antibody mixed with Flk-1, added to coated human VEGF, anti-Flk-1-HRP; antibody at 0 ng/ml (no inhibitor).

This is an account of results in patent US20070059820A1.

Sequence of UniProt P35918 (P35918 20-762 limits assumed): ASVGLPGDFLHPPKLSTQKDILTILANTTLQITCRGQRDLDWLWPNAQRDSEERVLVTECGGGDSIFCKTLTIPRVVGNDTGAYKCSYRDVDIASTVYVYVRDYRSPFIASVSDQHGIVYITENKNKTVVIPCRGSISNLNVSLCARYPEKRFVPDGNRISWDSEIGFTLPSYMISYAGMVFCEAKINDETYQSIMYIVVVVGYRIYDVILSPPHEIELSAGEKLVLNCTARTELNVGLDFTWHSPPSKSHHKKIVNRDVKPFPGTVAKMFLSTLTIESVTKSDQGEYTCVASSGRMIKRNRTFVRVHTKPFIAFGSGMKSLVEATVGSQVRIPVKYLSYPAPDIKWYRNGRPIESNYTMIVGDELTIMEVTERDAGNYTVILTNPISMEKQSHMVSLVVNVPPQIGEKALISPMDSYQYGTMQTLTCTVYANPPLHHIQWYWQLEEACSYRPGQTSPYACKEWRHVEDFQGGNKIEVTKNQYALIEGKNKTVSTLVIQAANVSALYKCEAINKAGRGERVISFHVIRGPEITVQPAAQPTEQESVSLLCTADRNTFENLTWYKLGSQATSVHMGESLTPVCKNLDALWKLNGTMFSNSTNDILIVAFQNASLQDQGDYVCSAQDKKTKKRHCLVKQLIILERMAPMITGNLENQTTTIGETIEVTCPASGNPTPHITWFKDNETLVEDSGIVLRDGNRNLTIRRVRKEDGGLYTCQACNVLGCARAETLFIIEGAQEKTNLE

Consider DC101 antibody produced by a hybridoma, for which the ELISA signal (name and unit not given) in the experiment with recombinant Flk-1 [1] is 0.312; with recombinant Flk-1 [2], 0.403; in the experiment with recombinant Flk-1 [3], 0.585; in the experiment with recombinant Flk-1 [4], 0.724; in the experiment with recombinant Flk-1 [5], 0.894; with recombinant Flk-1 [6], 1.12. In the experiment with recombinant Flk-1 [7], the ELISA signal (name and unit not given) stood at 0.117. The signal of Flk-1 bound to coated VEGF (name and unit not given) is 0.992 in the experiment with recombinant Flk-1 [8]; 0.931 with recombinant Flk-1 [9]; 0.834 with recombinant Flk-1 [10]; 0.635 with recombinant Flk-1 [11]; 0.357 with recombinant Flk-1 [12]; 0.193 with recombinant Flk-1 [13]. Moreover, the signal of Flk-1 bound to coated VEGF (name and unit not given) in the experiment with recombinant Flk-1 [14] worked out at 1.1.

B1: DC101 antibody expressed from CHO-S cells infected with Lenti-DC101-furin/2A14 (clone 7x-24) (antibody, from another filing, V domains shown)
VH: EVQLVETGGGLVQPGNSLKLSCATSGFIFSTTWMNWIRQTPGKRLEWLAQIEDKSNNYFISYSESVKGRFTISRDDSKSSVYLQMNNLKEEDTAIYYCSWKYRSNYYFDYWGQGVMVTVSS
VL: DIVLTQSPALAVSLEQRATISCKTSQNVDYYGISYLHWYQQKPGQQPKLLIYEGSNLASGIPARFSGSGSGTDFTLTIDPVEADDIVTYYCQQSKDYPYTFGAGTKLELKR
With B1, the ELISA signal (name and unit not given) was determined as 0.274 with recombinant Flk-1 [1]; 0.412 with recombinant Flk-1 [2]; 0.486 with recombinant Flk-1 [3]; 0.616 in the experiment with recombinant Flk-1 [4]; 0.993 with recombinant Flk-1 [5]; 1.14 with recombinant Flk-1 [6]. Further, the ELISA signal (name and unit not given) with recombinant Flk-1 [7] is 0.129. Moreover, the signal of Flk-1 bound to coated VEGF (name and unit not given) came out at 1.04 in the experiment with recombinant Flk-1 [8]; 0.945 in the experiment with recombinant Flk-1 [9]; 0.826 in the experiment with recombinant Flk-1 [10]; 0.43 with recombinant Flk-1 [11]; 0.237 with recombinant Flk-1 [12]; 0.184 with recombinant Flk-1 [13]. Moreover, in the experiment with recombinant Flk-1 [14], the signal of Flk-1 bound to coated VEGF (name and unit not given) was 1.07.
